Measurements reported in publication PMC7801428 (2021).

Biological target: SARS-CoV-2 RBD (residues V320 to G550, strain Wuhan-Hu-1), C-terminal His tag (SARS-CoV-2, UniProt P0DTC2 320-550)
Test: BLI

B1: human-mouse chimeric antibody 3C1 (c3C1) (antibody, V domains shown)
VH: EVQLQESGPSLVKPSQTLSLTCSVTGDSITNGYWNWIRKFPGNKLEYMGYISYSGSTYYSPSLKSRISITRDTSKNQHYLQLNSVTSEDTATYYCASDYHGSKYYFDYWGQGTTLTVSS
VL: DIVMTQSHKFMSTSVGHRVSITCKASQDVGNDVAWYQQKPGQSPKLLIYWASTRHTGVPDRFTGSGSGTDFTLTISNVQSEDLADYFCQQYNRYPYTFGGGTKLEIK
koff: < 1e-07 s⁻¹
